Results published in publication doi:10.1101/2022.04.07.487446 (bioRxiv, 2022).

Target: FANCD2 (human, UniProt Q9BXW9 1-1451)
Assay: cryo-EM structure

Chain of FANCD2 (Q9BXW9 whole entry): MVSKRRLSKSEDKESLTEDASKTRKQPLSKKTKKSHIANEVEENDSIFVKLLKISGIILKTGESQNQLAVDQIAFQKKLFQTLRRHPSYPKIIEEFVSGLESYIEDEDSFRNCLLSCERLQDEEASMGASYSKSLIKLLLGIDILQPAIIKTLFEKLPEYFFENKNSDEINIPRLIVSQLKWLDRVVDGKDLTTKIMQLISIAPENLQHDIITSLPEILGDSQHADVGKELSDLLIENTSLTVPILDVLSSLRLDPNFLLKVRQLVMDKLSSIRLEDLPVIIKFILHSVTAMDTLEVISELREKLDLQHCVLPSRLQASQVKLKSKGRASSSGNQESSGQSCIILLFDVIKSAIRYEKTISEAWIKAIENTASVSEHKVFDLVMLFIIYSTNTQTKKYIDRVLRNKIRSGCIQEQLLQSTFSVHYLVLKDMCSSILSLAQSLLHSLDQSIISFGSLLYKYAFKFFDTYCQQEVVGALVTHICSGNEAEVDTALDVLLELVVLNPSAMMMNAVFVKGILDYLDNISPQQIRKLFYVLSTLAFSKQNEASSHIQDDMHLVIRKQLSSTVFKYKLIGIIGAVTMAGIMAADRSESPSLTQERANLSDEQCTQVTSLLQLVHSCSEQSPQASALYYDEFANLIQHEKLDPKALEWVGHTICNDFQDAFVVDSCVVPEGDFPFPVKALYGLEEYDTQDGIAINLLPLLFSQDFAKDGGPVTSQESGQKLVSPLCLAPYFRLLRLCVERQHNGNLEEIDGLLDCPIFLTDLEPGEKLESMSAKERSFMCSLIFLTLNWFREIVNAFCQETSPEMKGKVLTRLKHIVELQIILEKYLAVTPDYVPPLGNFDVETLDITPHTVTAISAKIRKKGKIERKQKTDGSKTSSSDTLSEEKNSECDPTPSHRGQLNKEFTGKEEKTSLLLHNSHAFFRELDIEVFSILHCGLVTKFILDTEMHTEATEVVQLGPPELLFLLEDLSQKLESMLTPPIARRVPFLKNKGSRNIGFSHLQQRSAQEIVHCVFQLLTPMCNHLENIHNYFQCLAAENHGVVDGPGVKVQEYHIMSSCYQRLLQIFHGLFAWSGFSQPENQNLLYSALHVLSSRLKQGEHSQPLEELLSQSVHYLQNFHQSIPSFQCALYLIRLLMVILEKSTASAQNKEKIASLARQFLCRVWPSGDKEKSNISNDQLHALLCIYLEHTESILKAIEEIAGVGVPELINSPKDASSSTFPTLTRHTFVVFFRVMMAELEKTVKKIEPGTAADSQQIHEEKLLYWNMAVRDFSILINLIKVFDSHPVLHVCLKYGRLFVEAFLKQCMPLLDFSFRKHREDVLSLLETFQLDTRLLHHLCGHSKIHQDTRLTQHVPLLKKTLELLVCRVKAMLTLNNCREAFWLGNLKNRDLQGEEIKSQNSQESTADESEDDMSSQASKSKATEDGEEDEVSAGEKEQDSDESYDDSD

B1: ubiquitinated His6-V5-FANCI (natural protein)
chain 1: MDQKILSLAAEKTADKLQEFLQTLREGDLTNLLQNQAVKGKVAGALLRAIFKGSPCSEEAGTLRRRKIYTCCIQLVESGDLQKEIASEIIGLLMLEAHHFPGPLLVELANEFISAVREGSLVNGKSLELLPIILTALATKKENLAYGKGVLSGEECKKQLINTLCSGRWDQQYVIQLTSMFKDVPLTAEEVEFVVEKALSMFSKMNLQEIPPLVYQLLVLSSKGSRKSVLEGIIAFFSALDKQHNEEQSGDELLDVVTVPSGELRHVEGTIILHIVFAIKLDYELGRELVKHLKVGQQGDSNNNLSPFSIALLLSVTRIQRFQDQVLDLLKTSVVKSFKDLQLLQGSKFLQNLVPHRSYVSTMILEVVKNSVHSWDHVTQGLVELGFILMDSYGPKKVLDGKTIETSPSLSRMPNQHACKLGANILLETFKIHEMIRQEILEQVLNRVVTRASSPISHFLDLLSNIVMYAPLVLQSCSSKVTEAFDYLSFLPLQTVQRLLKAVQPLLKVSMSMRDCLILVLRKAMFANQLDARKSAVAGFLLLLKNFKVLGSLSSSQCSQSLSVSQVHVDVHSHYNSVANETFCLEIMDSLRRCLSQQADVRLMLYEGFYDVLRRNSQLANSVMQTLLSQLKQFYEPKPDLLPPLKLEACILTQGDKISLQEPLDYLLCCIQHCLAWYKNTVIPLQQGEEEEEEEEAFYEDLDDILESITNRMIKSELEDFELDKSADFSQSTSIGIKNNICAFLVMGVCEVLIEYNFSISSFSKNRFEDILSLFMCYKKLSDILNEKAGKAKTKMANKTSDSLLSMKFVSSLLTALFRDSIQSHQESLSVLRSSNEFMRYAVNVALQKVQQLKETGHVSGPDGQNPEKIFQNLCDITRVLLWRYTSIPTSVEESGKKEKGKSISLLCLEGLQKIFSAVQQFYQPKIQQFLRALDVTDKEGEEREDADVSVTQRTAFQIRQFQRSLLNLLSSQEEDFNSKEALLLVTVLTSLSKLLEPSSPQFVQMLSWTSKICKENSREDALFCKSLMNLLFSLHVSYKSPVILLRDLSQDIHGHLGDIDQDVEVEKTNHFAIVNLRTAAPTVCLLVLSQAEKVLEEVDWLITKLKGQVSQETLSEEASSQATLPNQPVEKAIIMQLGTLLTFFHELVQTALPSGSCVDTLLKDLCKMYTTLTALVRYYLQVCQSSGGIPKNMEKLVKLSGSHLTPLCYSFISYVQNKSKSLNYTGEKKEKPAAVATAMARVLRETKPIPNLIFAIEQYEKFLIHLSKKSKVNLMQHMKLSTSRDFKIKGNILDMVLREDGEDENEEGTASEHGGQNKEPAKKKRKK
chain 2: […]
B1: binds.
